Series [1] has as its target endogenous 14-3-3 (detected with anti-pan-14-3-3) (UniProt P61981). The experiment in a line: Co-IP.
The target of series [2] is Full-length human LRRK2 (Uniprot Q5S007 with R85H mutation), N-terminal 3X-FLAG, purified (human) (UniProt Q5S007). Put plainly: SEC + other: mass photometry; LRRK2 dimers isolated by gel filtration and confirmed by mass photometry. In general terms: Size exclusion chromatography separates by hydrodynamic size, large species first.
Series [3] deals with N-terminal His-tagged 14-3-3γ (Uniprot P61981) (UniProt P61981). The experiment in a line: MST. As to conditions: parent: est. 210 nM, read off a plot.
Series [4] has as its target Flag-tagged LRRK2 WT expressed in HEK293FT cells (human) (UniProt Q5S007). Put plainly: co-IP; HEK293FT cells transfected with WT or mutant Flag-tagged LRRK2, FLAG-M2 resin, elution with 3X-FLAG peptide, blot with anti-pan-14-3-3; ratio of endogenous 14-3-3 to LRRK2; in one panel cells treated with MLi-2 or Rebastinib.
Series [5] addresses LRRK2 mutants at the secondary interface (COR residues) in the Co-IP of Fig. 2d. The series is described as above.
Series [6] has as its target Flag-tagged LRRK2 R1728H expressed in HEK293FT cells (human) (UniProt Q5S007). The description is as above.
Series [7] has as its target Full-length human LRRK2 (Uniprot Q5S007 with R85H mutation), N-terminal 3X-FLAG, purified, Q5S007. Put plainly: MST. The conditions noted are these: chain shown with the change; right graph; 14-3-3 Variants; parent: est. 210 nM; read off a plot.
The target of series [8] is Purified LRRK2 mutated at the secondary interaction residue R1728 (mutant with reduced inhibition) (human), Q5S007.
Series [9] deals with Purified LRRK2 mutated at the secondary interaction residue N1730 (human), Q5S007.
For series [10], the target named is Purified LRRK2 mutated at the secondary interaction residue L1727 (human), Q5S007.
Series [11] deals with Purified LRRK2 R1728H (human), Q5S007.
Chain of Purified LRRK2 R1728H (human), Q5S007 (Q5S007 whole entry R1728H): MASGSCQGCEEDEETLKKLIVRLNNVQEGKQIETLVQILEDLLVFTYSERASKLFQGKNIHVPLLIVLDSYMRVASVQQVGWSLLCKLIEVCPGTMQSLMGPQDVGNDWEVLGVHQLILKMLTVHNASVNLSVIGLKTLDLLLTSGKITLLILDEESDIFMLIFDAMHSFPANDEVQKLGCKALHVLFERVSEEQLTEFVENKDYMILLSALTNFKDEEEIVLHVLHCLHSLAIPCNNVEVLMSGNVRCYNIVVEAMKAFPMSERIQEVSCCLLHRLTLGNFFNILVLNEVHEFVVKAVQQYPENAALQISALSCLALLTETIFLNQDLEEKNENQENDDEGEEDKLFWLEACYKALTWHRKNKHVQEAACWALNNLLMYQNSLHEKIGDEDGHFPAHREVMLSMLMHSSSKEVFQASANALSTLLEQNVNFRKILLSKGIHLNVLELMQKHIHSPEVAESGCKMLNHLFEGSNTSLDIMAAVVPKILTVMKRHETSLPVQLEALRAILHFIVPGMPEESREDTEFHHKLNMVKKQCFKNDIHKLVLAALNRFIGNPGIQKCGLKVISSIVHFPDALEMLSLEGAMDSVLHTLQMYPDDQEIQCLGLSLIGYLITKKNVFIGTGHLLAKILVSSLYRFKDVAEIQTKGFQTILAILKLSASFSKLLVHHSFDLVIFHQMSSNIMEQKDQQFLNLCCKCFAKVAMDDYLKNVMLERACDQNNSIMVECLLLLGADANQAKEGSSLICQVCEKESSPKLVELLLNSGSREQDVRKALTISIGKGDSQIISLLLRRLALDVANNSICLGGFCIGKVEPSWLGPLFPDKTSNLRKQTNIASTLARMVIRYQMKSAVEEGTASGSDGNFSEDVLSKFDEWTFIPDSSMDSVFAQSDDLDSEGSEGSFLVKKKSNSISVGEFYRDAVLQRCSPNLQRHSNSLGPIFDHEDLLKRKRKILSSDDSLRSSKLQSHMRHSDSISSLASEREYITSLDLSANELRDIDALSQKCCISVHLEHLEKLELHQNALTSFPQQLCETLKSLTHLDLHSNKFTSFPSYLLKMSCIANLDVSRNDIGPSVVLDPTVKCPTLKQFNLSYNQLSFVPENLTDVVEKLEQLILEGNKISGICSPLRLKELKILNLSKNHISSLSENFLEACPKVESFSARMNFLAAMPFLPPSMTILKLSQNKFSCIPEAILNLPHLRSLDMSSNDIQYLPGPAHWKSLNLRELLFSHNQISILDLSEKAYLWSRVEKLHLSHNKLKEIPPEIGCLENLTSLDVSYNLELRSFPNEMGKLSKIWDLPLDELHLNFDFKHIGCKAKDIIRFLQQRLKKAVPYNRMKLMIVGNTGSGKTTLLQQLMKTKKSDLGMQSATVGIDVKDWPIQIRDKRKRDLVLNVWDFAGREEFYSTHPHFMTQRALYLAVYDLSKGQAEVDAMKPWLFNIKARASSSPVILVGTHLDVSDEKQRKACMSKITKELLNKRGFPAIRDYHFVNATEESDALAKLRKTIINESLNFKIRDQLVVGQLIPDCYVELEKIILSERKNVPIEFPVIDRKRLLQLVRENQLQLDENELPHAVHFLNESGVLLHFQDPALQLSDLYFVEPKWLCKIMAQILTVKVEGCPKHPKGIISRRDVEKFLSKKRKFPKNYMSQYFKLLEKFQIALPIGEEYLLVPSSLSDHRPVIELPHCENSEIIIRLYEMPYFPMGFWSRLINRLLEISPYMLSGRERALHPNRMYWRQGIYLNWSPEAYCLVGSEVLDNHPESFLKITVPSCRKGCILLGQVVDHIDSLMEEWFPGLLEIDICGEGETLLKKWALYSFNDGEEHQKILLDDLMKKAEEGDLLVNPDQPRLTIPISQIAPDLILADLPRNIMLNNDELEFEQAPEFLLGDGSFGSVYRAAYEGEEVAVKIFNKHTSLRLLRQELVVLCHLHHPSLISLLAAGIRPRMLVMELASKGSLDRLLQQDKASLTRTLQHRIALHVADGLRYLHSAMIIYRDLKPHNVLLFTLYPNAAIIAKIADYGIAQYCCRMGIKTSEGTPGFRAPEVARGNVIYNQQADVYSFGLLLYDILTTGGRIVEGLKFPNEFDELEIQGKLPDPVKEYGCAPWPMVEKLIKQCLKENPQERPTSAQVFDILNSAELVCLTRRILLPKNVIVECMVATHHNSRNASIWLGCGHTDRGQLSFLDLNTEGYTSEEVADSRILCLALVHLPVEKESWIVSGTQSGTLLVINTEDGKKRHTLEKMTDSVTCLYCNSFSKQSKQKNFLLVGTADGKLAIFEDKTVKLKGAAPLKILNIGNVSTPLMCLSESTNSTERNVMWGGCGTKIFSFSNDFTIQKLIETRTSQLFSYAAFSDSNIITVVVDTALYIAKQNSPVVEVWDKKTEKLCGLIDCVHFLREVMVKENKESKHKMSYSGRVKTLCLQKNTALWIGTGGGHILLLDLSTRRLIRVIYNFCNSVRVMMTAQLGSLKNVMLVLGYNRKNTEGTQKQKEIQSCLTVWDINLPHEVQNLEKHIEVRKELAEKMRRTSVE
Series [12] concerns the target Purified LRRK2 R1441G (human), Q5S007.
For series [13], the target named is Purified LRRK2 R1628P (human), Q5S007.
Series [14] deals with Full-length human LRRK2 (Uniprot Q5S007 with R85H mutation), N-terminal 3X-FLAG, purified (human) (UniProt Q5S007). The experiment in a line: MST; as a3 with the type I kinase inhibitor MLi-2 at 2 uM.
The target is the same in series [15]. Put plainly: MST; LRRK2 labelled with RED-NHS 2nd generation at 40 nM, 14-3-3 titrated from a 485 µM stock in 1:2 dilutions, 25 °C for 1 h, 1:1 binding model.
Series [16] deals with Purified LRRK2 mutants on the LRRK2 side of the COR:14-3-3_(2) interface (MST, Fig. 2e right). Described as above.
The target of series [17] is Full-length human LRRK2 (Uniprot Q5S007 with R85H mutation), N-terminal 3X-FLAG, purified (human) (UniProt Q5S007).
Series [18] deals with the molecule itself. Put plainly: cryo-EM structure; LRRK2 monomer fraction at 50 mM NaCl with at least 60-fold molar excess of 14-3-3γ, cross-linked with 1 mM BS3, Superose 6; map at 3.96 Å, local refinement 3.87 Å.
In series [19] the target is Full-length human LRRK2 (Uniprot Q5S007 with R85H mutation), N-terminal 3X-FLAG, purified (human) (UniProt Q5S007). Put plainly: SEC-MALS; pre-formed dimeric LRRK2 at 130 nM without and with 14-3-3γ at 1 to 100 times that of LRRK2, Superose 6 Increase 15/150, gel filtration buffer.
The target is the same in series [20]. Put plainly: cryo-EM structure; LRRK2 monomer fraction at 50 mM NaCl with at least 60-fold molar excess of 14-3-3γ, cross-linked with 1 mM BS3, Superose 6; map at 3.96 Å, local refinement 3.87 Å.
Series [21] has as its target Purified LRRK2 mutated at the primary interaction residues S910/S935 (human) (UniProt Q5S007).
The mark [22] stands for this setting: left graph, Flag-tagged LRRK2 and endogenous 14-3-3, n = 3, parent: est. 1.0, read off a plot.
Setting [23] is: in cells, n = 3, parent: est. 1.0, read off a plot.
Where [24] appears, read: right graph, Flag-tagged LRRK2 and endogenous 14-3-3, n = 3, parent: est. 1.0, read off a plot.

Positions count from the first letter of the chain named. Names may count otherwise.

Chain of Full-length human LRRK2 (Uniprot Q5S007 with R85H mutation), N-terminal 3X-FLAG, purified, Q5S007 (Q5S007 other isoform, or with tags, fused parts or gaps R85H): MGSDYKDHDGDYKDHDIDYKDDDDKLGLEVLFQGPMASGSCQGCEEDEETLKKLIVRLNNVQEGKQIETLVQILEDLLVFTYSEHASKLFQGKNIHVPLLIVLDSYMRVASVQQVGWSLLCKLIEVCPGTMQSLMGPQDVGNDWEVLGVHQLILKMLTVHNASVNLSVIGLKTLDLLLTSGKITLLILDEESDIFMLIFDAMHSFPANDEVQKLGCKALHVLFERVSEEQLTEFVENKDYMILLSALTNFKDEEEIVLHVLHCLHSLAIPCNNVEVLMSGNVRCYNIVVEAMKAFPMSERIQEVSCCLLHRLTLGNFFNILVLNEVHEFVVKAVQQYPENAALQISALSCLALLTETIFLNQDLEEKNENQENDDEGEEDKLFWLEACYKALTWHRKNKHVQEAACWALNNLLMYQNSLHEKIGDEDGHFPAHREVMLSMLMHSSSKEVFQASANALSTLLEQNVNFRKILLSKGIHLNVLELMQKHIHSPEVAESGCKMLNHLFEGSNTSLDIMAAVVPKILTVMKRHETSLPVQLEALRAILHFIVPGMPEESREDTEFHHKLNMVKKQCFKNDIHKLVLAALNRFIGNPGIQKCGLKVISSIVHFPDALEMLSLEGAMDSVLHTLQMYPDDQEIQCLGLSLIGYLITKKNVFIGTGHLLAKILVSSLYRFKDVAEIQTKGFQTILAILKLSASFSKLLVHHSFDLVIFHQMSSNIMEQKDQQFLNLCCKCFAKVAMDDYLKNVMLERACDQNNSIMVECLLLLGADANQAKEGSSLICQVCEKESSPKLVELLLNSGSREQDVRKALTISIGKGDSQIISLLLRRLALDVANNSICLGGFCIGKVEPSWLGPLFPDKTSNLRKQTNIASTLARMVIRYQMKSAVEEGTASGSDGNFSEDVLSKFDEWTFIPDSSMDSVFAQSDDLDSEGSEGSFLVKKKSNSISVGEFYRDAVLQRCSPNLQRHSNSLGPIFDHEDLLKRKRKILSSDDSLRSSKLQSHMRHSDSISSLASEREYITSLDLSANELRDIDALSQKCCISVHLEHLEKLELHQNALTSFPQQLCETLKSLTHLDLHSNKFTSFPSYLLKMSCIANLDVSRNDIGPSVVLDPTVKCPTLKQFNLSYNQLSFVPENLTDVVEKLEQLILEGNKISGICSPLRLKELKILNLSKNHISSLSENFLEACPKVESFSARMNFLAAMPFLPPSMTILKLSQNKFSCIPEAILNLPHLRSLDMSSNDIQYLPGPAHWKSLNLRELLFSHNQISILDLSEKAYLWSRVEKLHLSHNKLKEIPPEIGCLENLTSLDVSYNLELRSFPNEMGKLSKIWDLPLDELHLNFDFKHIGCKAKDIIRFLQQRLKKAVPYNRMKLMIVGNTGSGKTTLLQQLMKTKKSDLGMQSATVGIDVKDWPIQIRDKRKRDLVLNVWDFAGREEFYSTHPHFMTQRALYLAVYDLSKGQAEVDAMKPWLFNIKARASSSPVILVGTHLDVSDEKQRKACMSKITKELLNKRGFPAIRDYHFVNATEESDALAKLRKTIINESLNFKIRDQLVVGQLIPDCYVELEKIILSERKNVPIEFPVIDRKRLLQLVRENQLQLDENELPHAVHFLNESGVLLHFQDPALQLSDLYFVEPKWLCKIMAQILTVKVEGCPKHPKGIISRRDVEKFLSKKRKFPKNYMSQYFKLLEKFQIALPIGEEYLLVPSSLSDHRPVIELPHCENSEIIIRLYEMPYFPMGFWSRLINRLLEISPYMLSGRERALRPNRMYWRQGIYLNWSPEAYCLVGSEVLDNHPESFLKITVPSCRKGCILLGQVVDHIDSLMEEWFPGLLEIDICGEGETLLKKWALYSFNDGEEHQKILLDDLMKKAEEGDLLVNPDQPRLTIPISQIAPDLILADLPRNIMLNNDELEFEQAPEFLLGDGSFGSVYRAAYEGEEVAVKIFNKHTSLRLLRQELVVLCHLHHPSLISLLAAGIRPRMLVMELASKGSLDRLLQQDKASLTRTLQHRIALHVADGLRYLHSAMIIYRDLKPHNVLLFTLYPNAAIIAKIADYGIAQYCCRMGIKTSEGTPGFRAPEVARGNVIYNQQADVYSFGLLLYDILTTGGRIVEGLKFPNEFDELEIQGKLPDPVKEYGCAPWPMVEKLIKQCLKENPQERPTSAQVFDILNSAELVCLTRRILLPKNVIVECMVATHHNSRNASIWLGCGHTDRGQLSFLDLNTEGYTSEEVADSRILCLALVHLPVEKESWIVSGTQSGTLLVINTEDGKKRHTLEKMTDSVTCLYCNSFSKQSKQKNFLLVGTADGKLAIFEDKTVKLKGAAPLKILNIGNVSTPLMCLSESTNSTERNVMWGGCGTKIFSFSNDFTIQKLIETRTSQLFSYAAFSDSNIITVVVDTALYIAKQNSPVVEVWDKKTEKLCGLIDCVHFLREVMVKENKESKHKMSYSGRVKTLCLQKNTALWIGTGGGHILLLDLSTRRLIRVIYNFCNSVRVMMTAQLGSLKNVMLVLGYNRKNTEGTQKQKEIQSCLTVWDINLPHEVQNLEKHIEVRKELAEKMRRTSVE
Chain of Flag-tagged LRRK2 R1728H expressed in HEK293FT cells (human) (Q5S007 whole entry R1728H): as the sequence (Q5S007 whole entry R1728H) above
Chain of Purified LRRK2 R1441G (human), Q5S007 (Q5S007 whole entry R1441G): as the sequence (Q5S007 whole entry R1728H) above, with R1441G, H1728R counted along it

On to “Flag-tagged LRRK2 WT expressed in HEK293FT cells, Q5S007 E1632A”, for which the ratio to parent in series [1] (setting [22]) came to 0.07.

In the case of “Flag-tagged LRRK2 WT expressed in HEK293FT cells, Q5S007 G2019S”, the ratio to parent in series [1] (setting [23]) was determined as 1.5.

For “Flag-tagged LRRK2 WT expressed in HEK293FT cells, Q5S007 L1635A”, the ratio to parent in [1] (setting [22]) came out at 0.11.

Consider “Flag-tagged LRRK2 WT expressed in HEK293FT cells, Q5S007 L1727A”, for which, in [1] (setting [24]), the ratio to parent was determined as 0.63.

With “Flag-tagged LRRK2 WT expressed in HEK293FT cells, Q5S007 N1730A”, the ratio to parent in [1] (setting [24]) was determined as 0.18.

As for “Flag-tagged LRRK2 WT expressed in HEK293FT cells, Q5S007 R1441G”, the ratio to parent in [1] (setting [23]) worked out at 0.07.

For the molecule “Flag-tagged LRRK2 WT expressed in HEK293FT cells, Q5S007 R1628P”, in [1] (setting [23]), the ratio to parent was found to be 1.6.

For “Flag-tagged LRRK2 WT expressed in HEK293FT cells, Q5S007 R1728A”, the ratio to parent in series [1] (right graph, Flag-tagged LRRK2 and endogenous 14-3-3, n = 3, marked ns against WT, parent: est. 1.0, read off a plot) amounted to 0.98.

In the case of “Flag-tagged LRRK2 WT expressed in HEK293FT cells, Q5S007 S910A; S935A”, the results for the ratio to parent in series [1] (setting [23]), in series [1] (setting [22]) and in series [1] (setting [24]) were 0.02, 0.03 and 0.01, respectively.

“Flag-tagged LRRK2 WT expressed in HEK293FT cells, Q5S007 S1636A”: in series [1] (setting [22]), the ratio to parent is 0.54.

As to “Full-length human LRRK2 (Uniprot Q5S007 with R85H mutation), N-terminal 3X-FLAG, purified (from UniProt Q5S007 1-2527) (enzyme)”, in series [2], the stoichiometry N (in general, the number of molecules, sites or subunits per partner or assembly) amounted to 2.

Take “Full-length human LRRK2 (Uniprot Q5S007 with R85H mutation), N-terminal 3X-FLAG, purified, Q5S007 L1727A”: the Kd (as a rule, the concentration at which binding is half-saturated) in [3] (right graph, LRRK2 Variants) was 470 nM.

On to “Full-length human LRRK2 (Uniprot Q5S007 with R85H mutation), N-terminal 3X-FLAG, purified, Q5S007 R1728A”, for which the Kd in series [3] (right graph, LRRK2 Variants) is 560 nM.

As to “Full-length human LRRK2 (Uniprot Q5S007 with R85H mutation), N-terminal 3X-FLAG, purified, Q5S007 S910A; S935A”, the Kd in [3] (left graph, bar labelled S910/S935A) is 230000 nM.

Regarding “endogenous 14-3-3 (detected with anti-pan-14-3-3) (from UniProt P61981 1-247) (natural protein)”, the fold decrease in co-immunoprecipitated 14-3-3 after treatment of the cells with MLi-2 in series [4] is 7 fold. In series [5], the fold decrease in co-immunoprecipitated 14-3-3 lay within 2 to 13 fold and the percent reduction in binding against WT lay within 40 to 90%. Also, the percent decrease in binding relative to WT in [6] came to 50%.

B1: N-terminal His-tagged 14-3-3γ (Uniprot P61981), P61981 Y216A (protein)
chain: MVDREQLVQKARLAEQAERYDDMAAAMKNVTELNEPLSNEERNLLSVAYKNVVGARRSSWRVISSIEQKTSADGNEKKIEMVRAYREKIEKELEAVCQDVLSLLDNYLIKNCSETQYESKVFYLKMKGDYYRYLAEVATGEKRATVVESSEKAYSEAHEISKEHMQPTHPIRLGLALNYSVFYYEIQNAPEQACHLAKTAFDDAIAELDTLNEDSAKDSTLIMQLLRDNLTLWTSDQQDDDGGEGNN
Take B1: the Kd in series [7] is 680 nM.

B2: N-terminal His-tagged 14-3-3γ (Uniprot P61981), P61981 1-247 (natural protein)
chain: B1 chain with A216Y
For the molecule B2, the inhibition of Rab10 phosphorylation by LRRK2 in an in vitro kinase assay, 14-3-3 at 300 µM in [8], in series [9] and in series [10] was 25% each time. For the same molecule, the reduction of the inhibition of LRRK2 kinase activity by 14-3-3 compared to WT in series [11] and in series [13] was 20% each time. Besides, the reduction of the 14-3-3 mediated inhibition of LRRK2 kinase activity in [12] was determined as 30%.

B3: N-terminal His-tagged 14-3-3γ (Uniprot P61981), P61981 Q224A (protein)
chain: B1 chain with A216Y, Q224A
Consider B3, for which the equilibrium dissociation constant (Kd) in [7] stood at 490 nM.

B4: N-terminal His-tagged 14-3-3γ (Uniprot P61981), P61981 R227A (protein)
chain: B1 chain with A216Y, R227A
Turning to B4, the Kd in series [7] turned out to be 640 nM.

B5: N-terminal His-tagged 14-3-3γ (Uniprot P61981) (natural protein, human)
chain: B1 chain with A216Y
notes: 14-3-3γ, Uniprot P61981; A TEV site follows the His tag; no cleavage is described; also called 14-3-3 gamma; 14-3-3 dimer; source: E. coli BL21*(DE3), purified (Ni-NTA, Superdex 75)
Consider B5, for which the fold decrease in binding affinity with MLi-2 against no inhibitor in [14] was 2 fold. In series [15], this molecule had a Kd of 212 nM. In series [16], this molecule yielded a fold increase in KD against the wild-type pair of 2 to 3 fold. For the same molecule, the inhibition of Rab10 phosphorylation by LRRK2 in an in vitro kinase assay, 14-3-3 from 0 to 300 µM in [17] is 50%. In [18], the “stoichiometry N” value is 2. Moreover, in series [19], the stoichiometry N (14-3-3γ dimer per LRRK2 dimer) came to 1. The stoichiometry N (14-3-3 dimer per LRRK2 monomer) in series [20] came out at 1. In addition, in series [21], the inhibition of Rab10 phosphorylation by LRRK2 in an in vitro kinase assay, 14-3-3 at 300 µM was found to be 25%.

Values taken from paper PMC12325948, “14-3-3 binding maintains the Parkinson’s associated kinase LRRK2 in an inactive state” (Nature Communications, 2025).
